Measurements reported in patent US20120316071A1 (published 2012).
Each block holds one binder with its values, some of them ahead of it.

Assays:
[1] = biological target: T1, Recombinant Human DLL4 (R&D Systems Cat#1506-D4/CF) (human, UniProt Q9NR61 27-524); assay: MSD Multispot ECL, antigen spotted on plate, Fab at 60 nM; blank spot 237
T1 construct: Bought recombinant protein; also called rHuman DLL4; delta-like protein 4

[2] = biological target: T2, rHuman Notch-1/Fc Chimera, CF (R&D Systems Cat#3647-TK) (human, UniProt P46531 19-526); assay: as above
T2 construct: Bought Fc chimera; Fc part of the bought chimera not given

[3] = biological target: T3, rHuman CD44/Fc Chimera, CF (R&D Systems Cat#3660-CD) (human, UniProt P16070 21-220); assay: as above
T3 construct: Bought Fc chimera; Fc part of the bought chimera not given

[4] = biological target: T4, rHuman P-Cadherin/Fc Chimera, CF (R&D Systems Cat#861-PC) (human, UniProt P22223 108-654); assay: as above
T4 construct: Bought Fc chimera; Fc part of the bought chimera not given

[5] = biological target: T5, rHuman Erythropoietin R/Fc Chimera, CF (R&D Systems Cat#963-ER) (human, UniProt P19235 25-250); assay: as above
T5 construct: Bought Fc chimera; also called EPO R/Fc; Epo R; Fc part of the bought chimera not given
T5 sequence (looked up): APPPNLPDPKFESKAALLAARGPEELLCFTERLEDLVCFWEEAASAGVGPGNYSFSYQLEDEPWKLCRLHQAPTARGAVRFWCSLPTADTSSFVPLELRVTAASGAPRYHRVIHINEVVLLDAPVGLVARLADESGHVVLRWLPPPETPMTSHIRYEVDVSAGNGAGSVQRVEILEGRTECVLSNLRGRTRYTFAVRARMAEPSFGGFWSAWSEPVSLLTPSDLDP

[6] = biological target: T6, Recombinant Human DLL4 (R&D Systems Cat#1506-D4/CF) (human, UniProt Q9NR61 27-524); assay: MSD multispot ECL, antigen spotted, Fab 37.2 nM; blank spot 199
T6 construct: Bought recombinant protein; also called rHuman DLL4; delta-like protein 4

[7] = biological target: T7, rHuman ErbB2/Fc Chimera, CF (R&D Systems Cat#1129-ER) (human, UniProt P04626 23-652); assay: as above
T7 construct: Bought reagent; also called human epidermal growth factor 2 receptor

[8] = biological target: T8, rHuman HGF R/c-MET/Fc Chimera, CF (R&D Systems Cat#358-MT/CF) (human, UniProt P08581 25-932); assay: as above
T8 construct: Bought reagent; also called HGF R/Fc; hepatocyte growth factor receptor
T8 sequence (P08581 25-932, change not shown): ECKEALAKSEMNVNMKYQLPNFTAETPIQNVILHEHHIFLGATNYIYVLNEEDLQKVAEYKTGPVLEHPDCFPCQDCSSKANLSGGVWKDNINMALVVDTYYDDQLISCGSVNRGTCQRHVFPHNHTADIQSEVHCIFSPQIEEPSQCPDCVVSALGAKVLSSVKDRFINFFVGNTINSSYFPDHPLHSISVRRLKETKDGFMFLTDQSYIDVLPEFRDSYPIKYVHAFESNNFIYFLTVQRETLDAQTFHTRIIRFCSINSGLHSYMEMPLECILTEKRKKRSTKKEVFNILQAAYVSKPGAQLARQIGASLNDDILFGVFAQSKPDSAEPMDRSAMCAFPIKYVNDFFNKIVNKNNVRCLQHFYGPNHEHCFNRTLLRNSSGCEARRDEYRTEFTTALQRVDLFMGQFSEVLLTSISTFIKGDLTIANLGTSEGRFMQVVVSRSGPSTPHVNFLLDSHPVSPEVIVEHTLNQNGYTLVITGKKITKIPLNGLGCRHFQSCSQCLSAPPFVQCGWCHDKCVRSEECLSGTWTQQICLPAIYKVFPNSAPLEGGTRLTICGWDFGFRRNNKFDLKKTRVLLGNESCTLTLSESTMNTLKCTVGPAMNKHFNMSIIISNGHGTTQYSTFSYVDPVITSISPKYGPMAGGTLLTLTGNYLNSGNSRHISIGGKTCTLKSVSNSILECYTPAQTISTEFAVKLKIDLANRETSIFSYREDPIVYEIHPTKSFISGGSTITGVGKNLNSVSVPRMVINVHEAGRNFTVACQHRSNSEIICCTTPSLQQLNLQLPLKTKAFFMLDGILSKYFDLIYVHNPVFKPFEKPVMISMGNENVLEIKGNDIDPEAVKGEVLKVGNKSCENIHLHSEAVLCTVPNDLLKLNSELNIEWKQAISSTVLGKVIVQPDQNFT

[9] = biological target: T9, rHuman CD44/Fc Chimera, CF (R&D Systems Cat#3660-CD) (human, UniProt P16070 21-220); assay: as above
T9 construct: Bought reagent

[10] = biological target: T10, rHuman Erythropoietin R/Fc Chimera, CF (R&D Systems Cat#963-ER) (human, UniProt P19235 25-250); assay: as above
T10 construct: Bought reagent; also called EPO R/Fc; Epo R
T10 sequence (looked up): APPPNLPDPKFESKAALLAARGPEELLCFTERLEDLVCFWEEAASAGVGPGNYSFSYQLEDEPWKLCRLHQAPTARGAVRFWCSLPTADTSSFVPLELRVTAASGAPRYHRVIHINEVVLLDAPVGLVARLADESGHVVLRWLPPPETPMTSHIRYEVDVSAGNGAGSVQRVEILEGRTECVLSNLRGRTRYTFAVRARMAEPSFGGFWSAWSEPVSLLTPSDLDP

[11] = biological target: T11, rHuman Erythropoietin R/Fc Chimera, CF (R&D Systems Cat#963-ER) (human, UniProt P19235 25-250); assay: Multispot ECL (MSD) assay, antigen spotted on plate, Fab at 1.56 µM; blank spot 4357
T11 construct: Bought recombinant protein; also called EPO R/Fc; Epo R; Fc part of the bought chimera not given
T11 sequence (looked up): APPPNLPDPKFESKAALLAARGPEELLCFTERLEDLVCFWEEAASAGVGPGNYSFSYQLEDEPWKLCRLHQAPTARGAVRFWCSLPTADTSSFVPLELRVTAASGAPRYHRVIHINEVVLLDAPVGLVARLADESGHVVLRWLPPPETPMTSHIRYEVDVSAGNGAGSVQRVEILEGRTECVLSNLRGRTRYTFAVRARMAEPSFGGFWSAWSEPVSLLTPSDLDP

[12] = biological target: T12, Recombinant Human DLL4 (R&D Systems Cat#1506-D4/CF) (human, UniProt Q9NR61 27-524); assay: as above
T12 construct: Bought recombinant protein; also called delta-like protein 4; rHuman DLL4

[13] = biological target: T13, rHuman ErbB2/Fc Chimera, CF (R&D Systems Cat#1129-ER) (human, UniProt P04626 23-652); assay: as above
T13 construct: Bought recombinant protein; also called human epidermal growth factor 2 receptor (ErbB2); Fc part of the bought chimera not given

[14] = biological target: T14, rHuman EGF R/Fc Chimera, CF (R&D Systems Cat#344-ER) (human, UniProt P00533 25-645); assay: as above
T14 construct: Bought recombinant protein; also called epidermal growth factor receptor (EGF R); Fc part of the bought chimera not given

[15] = biological target: T15, rHuman Notch-1/Fc Chimera, CF (R&D Systems Cat#3647-TK) (human, UniProt P46531 19-526); assay: as above
T15 construct: Bought recombinant protein; Fc part of the bought chimera not given

[16] = biological target: T16, rHuman CD44/Fc Chimera, CF (R&D Systems Cat#3660-CD) (human, UniProt P16070 21-220); assay: as above
T16 construct: Bought recombinant protein; Fc part of the bought chimera not given

[17] = biological target: T17, rHuman IGF-1 sR, (IGF-1 sR), CF (R&D Systems Cat#391-GR) (human, UniProt P08069 31-932); assay: as above
T17 construct: Bought recombinant soluble receptor; also called insulin-like growth factor-1 soluble receptor

[18] = biological target: T18, rHuman P-Cadherin/Fc Chimera, CF (R&D Systems Cat#861-PC) (human, UniProt P22223 108-654); assay: as above
T18 construct: Bought recombinant protein; Fc part of the bought chimera not given

ECL signal [1]: 875
ECL signal [2]: 415
ECL signal [3]: 434
ECL signal [4]: 372
ECL signal [5]: 423
B1: Fab VH6-1_IGHD3-3*01_IGHJ4*01 & V4-3_IGLJ4*01 (Fab, V domains shown)
VH: QVQLQQSGPGLVKPSQTLSLTCAISGDSVSSNSAAWNWIRQSPSRGLEWLGRTYYRSKWYNDYAVSVKSRITINPDTSKNQFSLQLNSVTPEDTAVYYCAREYYDFWSGYYTDYFDYWGQGTLVTVSS
VL: QPVLTQPTSLSASPGASARLTCTLRSGINLGSYRIFWYQQKPESPPRYLLSYYSDSSKHQGSGVPSRFSGSKDASSNAGILVISGLQSEDEADYYCMIWHSSASFVFGGGTQLIIL
notes: Tested as a purified germline Fab made in E. coli; The VH was cloned into plasmid A (CH1 constant region, His6 and Flag tags) and the lambda VL into plasmid E (lambda CL)

ECL signal [6]: 16700 ECL signal
ECL signal [7]: 384 ECL signal
ECL signal [8]: 207 ECL signal
ECL signal [9]: 356 ECL signal
ECL signal [10]: 315 ECL signal
B2: Fab VH1-46_IGHD6-6*01_IGHJ1*01 & L6_IGKJ1*01 (Fab, V domains shown)
VH: QVQLVQSGAEVKKPGASVKVSCKASGYTFTSYYMHWVRQAPGQGLEWMGIINPSGGSTSYAQKFQGRVTMTRDTSTSTVYMELSSLRSEDTAVYYCAREEYSSSSAEYFQHWGQGTLVTVSS
VL: not shown
notes: Only variable domains are tied to the molecule; Tested as a Fab made in E. coli: heavy chain from Plasmid A (CH1 constant region, His6 and Flag tags), kappa light chain from Plasmid C (kappa CL); also called parent Hit Fab against DLL4; VH1-46_IGHD6-6*01_IGHJ1*01 & L6_IGKJ1*01 (parental)

ECL signal [11]: 9480
ECL signal [12]: 10900
ECL signal [13]: 7580
ECL signal [14]: 7830
ECL signal [15]: 9450
ECL signal [16]: 7600
ECL signal [17]: 6910
ECL signal [18]: 15000
B3: Fab VH1-46_IGHD7-27*01_IGHJ2*01 & L6_IGKJ1*01 (Fab, V domains shown)
VH: QVQLVQSGAEVKKPGASVKVSCKASGYTFTSYYMHWVRQAPGQGLEWMGIINPSGGSTSYAQKFQGRVTMTRDTSTSTVYMELSSLRSEDTAVYYCARANWGYWYFDLWGRGTLVTVSS
VL: not shown
notes: Germline Fab made in E. coli; VH was cloned in Plasmid A (CH1 constant region, His6 and Flag tags) and the kappa VL in Plasmid C (kappa CL); Only the variable domains are tied to this Fab by name
